Assay [1] addresses T1, mouse LAG-3 overexpressed on CHO cells (mouse, UniProt Q61790 24-521).
T1 construct: whole, on cells; also called CHO-mLAG-3 cells; mouse LAG-3 on the cell surface
T1 sequence (looked up): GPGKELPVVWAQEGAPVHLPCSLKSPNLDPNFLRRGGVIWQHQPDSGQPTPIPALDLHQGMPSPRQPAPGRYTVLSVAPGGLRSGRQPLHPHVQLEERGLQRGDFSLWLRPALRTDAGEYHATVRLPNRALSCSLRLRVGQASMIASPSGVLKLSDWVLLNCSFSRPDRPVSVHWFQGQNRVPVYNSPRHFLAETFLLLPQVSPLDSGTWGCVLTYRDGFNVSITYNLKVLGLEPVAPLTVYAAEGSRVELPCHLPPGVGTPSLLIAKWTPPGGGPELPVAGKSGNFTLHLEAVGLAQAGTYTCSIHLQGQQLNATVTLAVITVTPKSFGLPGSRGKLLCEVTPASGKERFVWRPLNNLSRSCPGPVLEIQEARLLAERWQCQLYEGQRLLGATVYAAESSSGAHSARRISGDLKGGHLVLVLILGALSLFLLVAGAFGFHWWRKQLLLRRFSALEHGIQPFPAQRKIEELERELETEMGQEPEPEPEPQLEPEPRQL
Nature of the assay: flow cytometry (MFI) on CHO cells overexpressing mouse LAG-3; value from the EC50 table on the sheet, which has no unit of its own (concentration axis in nM); the curve has no plateau. The procedure: (§1) The cells were incubated on ice for 30 min. The cells were then washed at least twice prior to addition of a secondary antibody (a PE-labeled goat anti-human IgG antibody, Southern Biotech, final concentration […]) diluted in 1:100, and incubated on ice (protected from light) for 30 minutes. The cells were washed at least twice and analyzed by flow cytometry. The flow cytometry assay was performed on an Accuri C6 system (BD Biosciences), and a concentration-dependent curve was fitted with GraphPad according to the mean fluorescence intensity (MFI).

The next assay has as its target T2, rhLAG3 protein (huFc) (human, UniProt P18627 23-450, limits assumed).
T2 construct: Bought Fc fusion; also called antigen rhLAG3 protein (huFc) (Sino Biological); human LAG-3; not shown: human Fc
T2 sequence (looked up): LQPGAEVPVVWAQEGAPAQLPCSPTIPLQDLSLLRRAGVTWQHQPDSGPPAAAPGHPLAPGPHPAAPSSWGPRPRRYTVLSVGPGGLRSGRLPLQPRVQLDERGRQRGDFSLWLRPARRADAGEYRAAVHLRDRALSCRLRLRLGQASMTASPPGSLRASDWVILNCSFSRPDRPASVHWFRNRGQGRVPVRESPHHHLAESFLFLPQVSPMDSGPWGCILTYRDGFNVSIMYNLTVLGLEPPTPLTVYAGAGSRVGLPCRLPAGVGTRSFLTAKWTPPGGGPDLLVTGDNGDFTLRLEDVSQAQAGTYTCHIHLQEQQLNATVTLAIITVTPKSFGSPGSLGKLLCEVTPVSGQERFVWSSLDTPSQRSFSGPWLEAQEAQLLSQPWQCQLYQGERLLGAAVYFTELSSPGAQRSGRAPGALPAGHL
Put plainly: flow cytometry, blocking of rhLAG3 (huFc) 20 nM binding to HLA-DR on CHO-DR cells. The procedure: Antigen rhLAG3 protein (huFc) (Sino Biological) was diluted to 40 nM, 50 μL/well. […] 50 μL of the diluted antibodies was added to each well, and incubated in PBS on ice for 30 min. The final antigen concentration was 20 nM and the maximum antibody concentration was 40 nM. The CHO-DR cells were adjusted to 3×10⁵ cells/well, 100 μL/well. The cells were centrifuged at 300 g for 5 min. The supernatant was discarded. Then the cells were resuspended in an antigen-antibody mixture. The mixture was incubated on ice for 30 min. PBS was added, 100 μL/well. After centrifugation at 300 g for 5 min, the mixture was washed with PBS once. 100 μL of goat anti-human IgG-PE (Southern Biotech) diluted in 1:100 was added to each well. After a 20-min ice bath, PBS was added, 100 μL/well. The mixture was centrifuged at 300 g for 5 min, prior to one wash with PBS. The cells were resuspended with 100 μL of PBS. The cell fluorescence signal values were measured by flow cytometry (BD Biosciences).

Assay [2] deals with T1, mouse LAG-3 overexpressed on CHO cells. Put plainly: flow cytometry on CHO-mLAG-3 cells, MFI curve. The procedure: as §1

Numbering of substitutions follows the chain as printed.

B1: ADI-31851 (antibody, human IgG4 S228P, kappa, F234A L235A, V domains shown)
VH: QLQLQESGPGLVKPSETLSLTCTVSGGSISSPDYYWGWIRQPPGKGLEWIGSIVYSGYTYYNPSLKSRVTISVDTSKNQFSLKLSSVTAADTAVYYCARVRTWDQSFDIWGQGTMVTVSS
VL: DIQMTQSPSSLSASVGDRVTITCQAGQDISNYLNWYQQKPGKAPKLLIYDASNLETGVPSRFSGSGSGTDFTFTISSLQPEDIATYYCQQVLELPPWTFGGGTKVEIKR
notes: IgG4 heavy chain constant region with kappa light chain; expressed in HEK293 cells
Regarding B1, in assay [1], the EC50 is ~12100 nM. In the assay with rhLAG3 protein (huFc), this molecule gave an IC50 of 5.85 nM.

B2: ADI-31853 (antibody, human IgG4 S228P, kappa, F234A L235A, V domains shown)
VH: B1 VH with S30Y, P32E, D33S, Q105A, S106A
VL: B1 VL with G26S
notes: as for B1
In turn, B2 yielded an IC50 with rhLAG3 protein (huFc) of 4.53 nM. For the same molecule, the EC50 in assay [2] was 42.3 nM.

These data come from patent US20210371529A1 (Innovent, published 2021).
